Earlier results as cited in article PMC8249329.

Molecular target: ACE2 (Homo sapiens) (UniProt Q9BYF1)
Sequence (Q9BYF1 18-740): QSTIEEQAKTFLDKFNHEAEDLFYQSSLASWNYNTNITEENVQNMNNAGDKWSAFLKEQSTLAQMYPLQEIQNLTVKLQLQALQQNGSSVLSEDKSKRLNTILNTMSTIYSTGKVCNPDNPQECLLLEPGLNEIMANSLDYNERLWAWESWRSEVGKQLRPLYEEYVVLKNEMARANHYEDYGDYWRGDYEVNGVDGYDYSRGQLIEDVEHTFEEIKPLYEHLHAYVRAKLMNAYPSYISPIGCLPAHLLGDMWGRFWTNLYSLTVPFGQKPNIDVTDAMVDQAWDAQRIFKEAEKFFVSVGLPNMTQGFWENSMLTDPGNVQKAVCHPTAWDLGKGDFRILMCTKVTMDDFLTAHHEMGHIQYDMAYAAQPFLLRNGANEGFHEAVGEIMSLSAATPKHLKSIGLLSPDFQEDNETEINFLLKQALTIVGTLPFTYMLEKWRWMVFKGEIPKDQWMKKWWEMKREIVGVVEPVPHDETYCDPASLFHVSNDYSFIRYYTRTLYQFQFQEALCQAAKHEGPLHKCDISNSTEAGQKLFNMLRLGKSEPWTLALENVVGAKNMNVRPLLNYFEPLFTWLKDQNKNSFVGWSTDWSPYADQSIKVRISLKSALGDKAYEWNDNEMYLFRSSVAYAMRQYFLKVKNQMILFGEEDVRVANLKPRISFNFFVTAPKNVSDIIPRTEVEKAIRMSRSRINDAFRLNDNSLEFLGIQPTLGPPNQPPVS

Chain of HCoV-NL63 spike RBD (Q6Q1S2 481-616): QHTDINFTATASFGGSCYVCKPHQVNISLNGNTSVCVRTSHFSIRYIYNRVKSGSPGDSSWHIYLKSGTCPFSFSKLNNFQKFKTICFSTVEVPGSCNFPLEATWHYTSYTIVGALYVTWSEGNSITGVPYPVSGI

For “HCoV-NL63 spike RBD (from UniProt Q6Q1S2)”, the Kd is given as 35 nM.
